# Assay: label from the status in PepcDB records
row,Sequence,protein production
1,MKRNSSIDLMKSCAIFFVISVHFLLNSGFYDMTIHSTLAIFWIGIRTILITCVPLFLVATGFLMNRKELSAQYVLGIVPVIISYIGISLLVWGVLSLVGKGSDFSTAINGIFDYSTDSYSWYVEMYLGLYLFIPLLNIIWNYKKEIKNYHLYIVFIASLLTFLPSLLNSFGKVIPDYWQICYPVSYYFIGAYLYTYQNEIKKISIGKLVTAFLSALTIFTLTDTFASWNQEFQWLDHNDYFGYQTAIMTVLVIAILWRTPIPKWSVRLLKALSTATLTIYLISDLTDQFVYGFFKHEIPNLSQRVIAGPIIIPVAFTSAALLGIFVGKVLNIPFKRKKERKEN,failed
2,MKRRRRNSKLKFEETSDQSPTSTAEFSFSLTKIAVSQICQSIGYKATDASALNTLTLTTTKFLQSLAELASSFSNTANRTEVNLFDIVNGLQDIALSTSDCFPGGSTVHDIESQCLIKSAVLRNLSDFVTYAPEIPFAKPLPRRERDGSFGGDLDHVAVTRSVDVTSVPAWLPPFPDSSLCSDRCSKDNRSDHLWENSDSVIRREILPESLKSKSGGRLPVMRDKVRFKMEQRDWSSGGDTRLERSRDNNNGESGRDLEVKKKIREGYTYCAGEWPF,failed
3,MKRSDKYTDDYIEQRYESQRPHYNTYYQPIGKPPKKKKSKRIFLKAIITILILLIIFFGVMYFISSRANVDDLKSIENKSDFVATENMPNYVKGAFISMEDERFYKHHGFDIKGTTRALFSTISDRDVQGGSTITQQVVKNYYYDNERSFTRKIKELFVARKVEKQYSKNQILSFYMNNIYYGDNQYTVEGAANHYFGVTVDKNNSNMSQISVLQSAILASKVNAPSVYDVNDMSNNYINRVKTNLEKMKQQNFISESQYQEAMSQLGN,not failed
4,MKRSTRFQQRSLFAIGGLGLLIGVAFVLVQFRATLIFTVFLYYASRPIYRKLESVSTPSYFSEYSLPYRRQILAVTTISVFLLPFLLLFTYTLALVVPAVQQFIGQNDLASGYLSAIQSADSGGLPEPIAGLQISDLLDMSPEEIVTILNAPSVRTWIEQTLGTLISSIGVFADVGIQAFLLLSGTYYLLTDGPRLSRWLFDHFDESGVVESYAIAVDDELSSILFGNILNALVTGIIGIVVFSAYNSISPAAVQVPFAPLVGALTGAGSLIPVVGMKIVYFPVGAILTVGAVASGQATAIGYVLLFLILAFVVVDTIPDFLIRPYVSGNRTHVGLLMFAYILGPIVFGAYGIFLGPILLVLVAQFFRTVAPYVATGEPPDQSKLYEY,failed
5,MKRTKKAFVLVLSLSMLASISPQTVLASGGNTDRYEEVHGTQAIVKDAEVHVYTTKNGGTVQLTGSNGIETTFTQGIGYREYKATPADGWRWKGWTYEQLYQGEDLGNRTDYGWGRRYSFSNDGSDWKSPYDGIGQTISVNRLLTTGETVGNKITYNLYADFNPTINATADTGGTIEDSGITEVEYGTNKQYTVTADTGKDIASVTVDGNSVLAETKKDSFTYTFENVTEPHTIHATFTDEIHTVSYEFVSGTAGEALPEEVSNLCPSSSTYTYGTEVTPTQPTSTSVKVSDGVWTFKGYDKENQTVTSDVKFTGTWTFAKNAVTINHIPTITAGDKTITVGDSFDPKKDVTASDKEDGSLTDRIEVINNTVNTSKVGTYTVTYKVTDKDGASVTKSITVTVKEKDKEEQTTVPTKPDNGNSTSTDTKKDASKTGQTVKTGDTSNVLLWSTIAILSLAGVVTVLFIKRRKSHS,failed
6,MKRWTTLLIVICMLGITIPAMGAMSISKMRQNTRFLTDRMAYELKLTPRQYNDVYEVNYDFINNVRYLMDDVVRGYDYALERYYDFLDVRNDDLRWILSSAQYRRFMRAEHFYRPIYAHENKWHFRIYLVYNNVNFFYYGKPHHYASYCGGHYRTHFNNVSYYKTHYRDHYRHDVYDGHYRIRHDRMTYDMHRRRDFNIAVRPPQKEHHRPATPPQTRPNRPQIHPDRPSGDHRRPSVPQARPDRPKKDQNNKHDGRPSRRGQNSQVDKDRHENRRITPSGRDVRRGNGKKEKDSDRSGGSNKSNSKERTAVRMRTV,failed
7,MKSADGLLHVAFTPSKATGKVLASELPEKVGKRSSVLYPASLKAGNDIGVPVQSVDTVLLQQALSAPVLSVASPSAVRAWLHLIQNEEQWSNYVACIGETTASAARRLGLKNVYYPEKPGLEGWVESIMEALGAHADSSNPSSRN,failed
8,MKSAELKYLDFEDFTKLIALAKEKINPIYSSSFMIYIAAMTGMRFSELLGLTWDNVDFEKGQIYVKRTWDIYKNNFAPTKNDQSVRFLAIDSSTMQVMINYKEQQEKLLKRLEIEPEHPFVFYNIKNGLITNNSLNKQLRNMCKKLGFKKIITCHGLRHTHASTMLYKGINILYVSKRLGHSSLNVTMSVYSHILKLEHHHHHH,failed
